Measurements: PMC10877986 (mAbs, 2024)
Where two headings read alike, the source gives them in different places.

Tests used:
Test in all cases: SPR
recombinant human PD-1 [1] = molecular target: T1, recombinant human PD-1 (Homo sapiens, UniProt Q15116)
recombinant mouse PD-1 = recombinant mouse PD-1 (Mus musculus, UniProt Q02242)
recombinant human PD-1 [2] = molecular target: T1, recombinant human PD-1; remark: listed apart in the source
[3] = molecular target: recombinant cynomolgus monkey PD-1 (Macaca fascicularis (cynomolgus monkey), UniProt B0LAJ3)

T1 sequence (Q15116 25-170): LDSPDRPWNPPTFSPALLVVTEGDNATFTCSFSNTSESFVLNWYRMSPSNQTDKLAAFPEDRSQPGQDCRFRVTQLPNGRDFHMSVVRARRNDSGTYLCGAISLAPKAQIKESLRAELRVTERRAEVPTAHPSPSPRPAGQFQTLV
Chain of recombinant mouse PD-1 (Q02242 25-169): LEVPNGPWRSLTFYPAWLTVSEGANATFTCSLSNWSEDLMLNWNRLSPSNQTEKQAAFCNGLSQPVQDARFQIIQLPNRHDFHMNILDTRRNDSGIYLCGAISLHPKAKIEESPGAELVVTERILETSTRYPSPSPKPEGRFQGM

B1: h1340.CC (antibody, V domains shown)
VH: EQQLVESGGGVVQPGRSLRLSCAASGFSFSSTYWICWVRQAPGKGLEWIACIYAGSSGNTYYANWAKGRFTISKDSSSTTVFLQMNSLRAEDTAVYFCARAGGAGGGVYTLTRLDLWGQGTLVTVSS
VL: AAQLTQSPSSLSASVGDRVTITCQSSQSVYNNNDLAWYQQKPGKPPKLLIYTPSSLTSGVPSRFSGSGSGTDFTLTISSLQPEDFATYYCLGGYDDDSDNAFGGGTKVEIK
Recombinant human PD-1 [1]
  Kd: 0.1 nM
Recombinant mouse PD-1
  Kd: 1.72 nM
Recombinant human PD-1 [2]
  Kd: 0.3 nM
[3]
  Kd: 0.42 nM

B2: h1340.SA (antibody, V domains shown)
VH: EQQLVESGGGVVQPGRSLRLSCAASGFSFSSTYWISWVRQAPGKGLEWIAAIYAGSSGNTYYANWAKGRFTISKDSSSTTVFLQMNSLRAEDTAVYFCARAGGAGGGVYTLTRLDLWGQGTLVTVSS
VL: AAQLTQSPSSLSASVGDRVTITCQSSQSVYNNNDLAWYQQKPGKPPKLLIYTPSSLTSGVPSRFSGSGSGTDFTLTISSLQPEDFATYYCLGGYDDDSDNAFGGGTKVEIK
Recombinant human PD-1 [1]
  Kd: 0.7 nM
Recombinant mouse PD-1
  fold decrease in affinity against h1340.CC: ~4 fold
Recombinant human PD-1 [2]
  fold decrease in affinity against h1340.CC: ~2.5 fold
  fold decrease in affinity against rbt1340: 4 fold
[3]
  fold decrease in affinity against rbt1340: 6 fold

B3: h1340.AA (antibody, V domains shown)
VH: EQQLVESGGGVVQPGRSLRLSCAASGFSFSSTYWIAWVRQAPGKGLEWIAAIYAGSSGNTYYANWAKGRFTISKDSSSTTVFLQMNSLRAEDTAVYFCARAGGAGGGVYTLTRLDLWGQGTLVTVSS
VL: AAQLTQSPSSLSASVGDRVTITCQSSQSVYNNNDLAWYQQKPGKPPKLLIYTPSSLTSGVPSRFSGSGSGTDFTLTISSLQPEDFATYYCLGGYDDDSDNAFGGGTKVEIK
Recombinant human PD-1 [1]
  binding result: binds

B4: h1340.SA.3 (antibody, V domains shown)
VH: EQQLVESGGGVVQPGRSLRLSCAASGFSFDSTYWISWVRQAPGKGLEWIAAIYAGSSGNTYYANWAKGRFTISKDSSSTTVFLQMNSLRAEDTAVYFCARAGGAGGGVYTLTRLDLWGQGTLVTVSS
VL: AAQLTQSPSSLSASVGDRVTITCQSSQSVYNNNDLAWYQQKPGKPPKLLIYTPSSLTSGVPSRFSGSGSGTDFTLTISSLQPEDFATYYCLGGYDDDSDNAFGGGTKVEIK
Recombinant human PD-1 [1]
  binding result: binds

B5: h1340.SA.5 (antibody, V domains shown)
VH: EQQLVESGGGVVQPGRSLRLSCAASGFSFSSTYWISWVRQAPGKGLEWIAAIYLGSSGNTYYANWAKGRFTISKDSSSTTVFLQMNSLRAEDTAVYFCARAGGAGGGVYTLTRLDLWGQGTLVTVSS
VL: AAQLTQSPSSLSASVGDRVTITCQSSQSVYNNNDLAWYQQKPGKPPKLLIYTPSSLTSGVPSRFSGSGSGTDFTLTISSLQPEDFATYYCLGGYDDDSDNAFGGGTKVEIK
Recombinant human PD-1 [1]
  binding result: binds

B6: h1340.SA.6 (antibody, V domains shown)
VH: EQQLVESGGGVVQPGRSLRLSCAASGFSFSSTYWISWVRQAPGKGLEWIAAIYAGSSGNTYYANWAKGRFTISKDSSSTTVFLQMNSLRAEDTAVYFCARSGGAGGGVYTLTRLDLWGQGTLVTVSS
VL: AAQLTQSPSSLSASVGDRVTITCQSSQSVYNNNDLAWYQQKPGKPPKLLIYTPSSLTSGVPSRFSGSGSGTDFTLTISSLQPEDFATYYCLGGYDDDSDNAFGGGTKVEIK
Recombinant human PD-1 [1]
  binding result: binds
